Assay results: patent US20150147330A1

Target: human glypican-3 (GPC3), cell-associated (human) (UniProt P51654)
Experiment: flow cytometry on cells expressing native GPC3, MFI titration, Scatchard plot (Prism)

Kd: 300 pM
Substance: YP7 (antibody)
